According to patent US7169567:
Values joined by “and” are separate entries in the source; they are usually repeats but may differ in a detail not shown here. Equal entries are not always repeated. One block for each substance: values may come before it.

Columns and labels:
Assay in all cases: cell-based or functional assay
[1] = target: intact rat PTH-1 receptor with HA epitope tag (rWT-HA) (rat) (UniProt P25961)
[2] = target: human PTH-1 receptor (human) (UniProt Q03431)
[3] = target: truncated rat PTH-1 receptor rΔNt (rat) (UniProt P25961)
Sequence of truncated rat PTH-1 receptor rΔNt (rat) (P25961 other isoform, or with tags, fused parts or gaps mutant): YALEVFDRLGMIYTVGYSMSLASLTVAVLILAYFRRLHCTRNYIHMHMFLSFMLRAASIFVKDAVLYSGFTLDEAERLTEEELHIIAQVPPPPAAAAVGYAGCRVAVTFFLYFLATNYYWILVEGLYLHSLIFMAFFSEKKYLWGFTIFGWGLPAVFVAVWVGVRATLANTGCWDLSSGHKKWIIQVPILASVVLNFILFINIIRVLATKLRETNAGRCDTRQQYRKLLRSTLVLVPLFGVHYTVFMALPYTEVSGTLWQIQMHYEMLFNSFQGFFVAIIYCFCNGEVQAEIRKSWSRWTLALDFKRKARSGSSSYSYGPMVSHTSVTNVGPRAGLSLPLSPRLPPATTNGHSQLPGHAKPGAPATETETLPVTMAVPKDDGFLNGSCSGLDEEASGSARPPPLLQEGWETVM

[4] = target: intact rat secretin receptor (rat) (UniProt P23811)
Sequence of intact rat secretin receptor (rat) (P23811 26-449): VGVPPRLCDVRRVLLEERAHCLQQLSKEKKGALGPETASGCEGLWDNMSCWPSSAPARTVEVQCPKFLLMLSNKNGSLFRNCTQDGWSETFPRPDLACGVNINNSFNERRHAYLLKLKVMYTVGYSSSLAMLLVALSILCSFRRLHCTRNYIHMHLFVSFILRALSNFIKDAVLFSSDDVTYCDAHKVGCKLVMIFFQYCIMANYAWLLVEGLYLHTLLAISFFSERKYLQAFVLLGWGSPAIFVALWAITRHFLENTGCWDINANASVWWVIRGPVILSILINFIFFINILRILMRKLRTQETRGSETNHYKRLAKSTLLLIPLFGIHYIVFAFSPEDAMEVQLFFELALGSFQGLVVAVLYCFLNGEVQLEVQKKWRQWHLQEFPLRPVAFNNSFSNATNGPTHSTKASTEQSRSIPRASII

Sequence of human PTH-1 receptor (human) (Q03431 27-593): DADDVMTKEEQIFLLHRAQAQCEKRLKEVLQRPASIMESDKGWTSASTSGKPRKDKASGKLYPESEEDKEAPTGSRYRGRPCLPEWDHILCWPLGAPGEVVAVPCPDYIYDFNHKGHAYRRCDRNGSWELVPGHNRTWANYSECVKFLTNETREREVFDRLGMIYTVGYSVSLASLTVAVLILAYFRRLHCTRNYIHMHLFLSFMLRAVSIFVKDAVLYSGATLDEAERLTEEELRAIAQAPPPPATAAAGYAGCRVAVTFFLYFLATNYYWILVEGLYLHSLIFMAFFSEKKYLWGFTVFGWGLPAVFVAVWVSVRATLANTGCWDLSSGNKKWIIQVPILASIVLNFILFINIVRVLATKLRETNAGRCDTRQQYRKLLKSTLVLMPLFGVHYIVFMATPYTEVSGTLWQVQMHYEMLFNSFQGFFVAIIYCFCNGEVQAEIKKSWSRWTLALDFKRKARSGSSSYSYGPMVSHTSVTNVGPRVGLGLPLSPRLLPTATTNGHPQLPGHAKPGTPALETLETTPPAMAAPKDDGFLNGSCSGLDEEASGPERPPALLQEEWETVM
Sequence of intact rat PTH-1 receptor with HA epitope tag (rWT-HA) (rat) (P25961 other isoform, or with tags, fused parts or gaps): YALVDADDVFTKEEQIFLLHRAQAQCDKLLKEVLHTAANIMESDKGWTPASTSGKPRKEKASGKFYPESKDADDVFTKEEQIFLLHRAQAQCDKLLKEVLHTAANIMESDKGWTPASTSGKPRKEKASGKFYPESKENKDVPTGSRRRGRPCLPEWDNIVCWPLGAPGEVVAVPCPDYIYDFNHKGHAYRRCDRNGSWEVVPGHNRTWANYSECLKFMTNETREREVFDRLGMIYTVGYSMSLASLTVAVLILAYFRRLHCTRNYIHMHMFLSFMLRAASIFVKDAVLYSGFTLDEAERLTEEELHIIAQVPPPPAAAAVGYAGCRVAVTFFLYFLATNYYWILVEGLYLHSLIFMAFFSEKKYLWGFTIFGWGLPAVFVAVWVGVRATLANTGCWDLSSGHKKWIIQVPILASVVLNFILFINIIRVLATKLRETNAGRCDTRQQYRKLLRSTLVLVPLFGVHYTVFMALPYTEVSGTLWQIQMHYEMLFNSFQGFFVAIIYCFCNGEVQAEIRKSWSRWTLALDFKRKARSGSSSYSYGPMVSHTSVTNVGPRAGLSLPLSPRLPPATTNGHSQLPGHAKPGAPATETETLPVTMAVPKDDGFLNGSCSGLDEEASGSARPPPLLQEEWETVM

- reduction of the cAMP efficacy of the agonist PTH(1-14) [1]: < 70%
- reduction of the cAMP efficacy of the agonist PTH(1-34) [1]: < 70%
Substance: [Leu11,D-Trp12]hPTHrP(7-34)NH2 (from UniProt P12272 43-70) (peptide)

- EC50 of the cAMP response [2]: 2 nM
- increase in intracellular cAMP levels relative to the basal cAMP level [2]: 50 fold
- maximum cAMP response [2]: 254 pmole/well
- decrease in cAMP potency compared with rWT-HA [3]: 100 fold
Substance: [Nle8,21,Tyr34]rPTH-(1-34)NH2 (from UniProt P04089 32-65) (peptide)

- cAMP formation over the basal level [2]: 20 fold
- dose required for cAMP activation relative to PTH(1-34) (orders of magnitude) [2]: 5 and 6
Substance: rat PTH(1-15) (from UniProt P04089 32-46) (peptide)

- increase in cAMP levels [4]: 50 fold
Substance: secretin(1-27) (peptide)
